Assay results published in patent US20260209265A1 (NAVIGO PROTEINS, published 2026).

Columns and labels:
Octagam (IgG sample) [1] = target: T1, Octagam (IgG sample); assay: step pH elution with 0.1 M acetic acid of hIgG (Octagam) bound to the immobilized ligand; percent of the bound IgG released at pH 3.7
T1 construct: also called hIgG

Natalizumab (IgG4) = assay: SPR (Bruker SPR-32, 25 C, Langmuir 1:1 model)
Excerpt: (§1) A sensor chip (Bruker) was equilibrated with surface plasmon resonance (SPR) running buffer. Surface-exposed carboxylic groups were activated by passing a mixture of EDC and NHS to yield reactive ester groups. 700-1500 RU on-ligand were immobilized on a flow cell, off-ligand was immobilized on another flow cell. Injection of ethanolamine after ligand immobilization removes non-covalently bound Ig binding protein. Upon ligand binding, protein analyte was accumulated on the surface increasing the refractive index. This change in the refractive index was measured in real time and plotted as response or resonance units (RU) versus time. The analytes were applied to the chip in serial dilutions with a suitable flow rate (pl/min). After each run, the chip surface was regenerated with regeneration buffer and equilibrated with running buffer. The control samples were applied to the matrix. Regeneration and re-equilibration were performed as previously mentioned. Binding studies were carried out by the use of the Bruker SPR-32 at 25° C.; data evaluation was operated via the Bruker evaluation software, provided by the manufacturer, by the use of the Langmuir 1:1 model (RI=0).

Panitumab (IgG2) = target: T2, Panitumab (IgG2); assay: SPR (Bruker SPR-32, 25 C, Langmuir 1:1 model)
T2 construct: also called hIgG2
Excerpt: as §1

Octagam (IgG sample) [2] = target: T1, Octagam (IgG sample); assay: step pH elution with 0.1 M acetic acid of hIgG (Octagam) bound to the immobilized ligand; percent of the bound IgG released at pH 4.0
Octagam (IgG sample) [3] = target: T1, Octagam (IgG sample); assay: dynamic binding capacity at 10% breakthrough; ligand coupled to agarose beads, Octagam 2.2 mg/ml loaded
Octagam (IgG sample) [4] = target: T1, Octagam (IgG sample); assay: DBC10 of the immobilized ligand after 50 h in 1 M NaOH, in % of the DBC10 at 0 h; Octagam loaded, 6 min residence time

Natalizumab (IgG4), sequence (VH, as listed by the source, chain 1 of 2): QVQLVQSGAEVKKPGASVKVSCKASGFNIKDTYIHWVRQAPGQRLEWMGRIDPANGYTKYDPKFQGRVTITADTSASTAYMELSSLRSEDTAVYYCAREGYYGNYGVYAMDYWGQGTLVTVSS
Natalizumab (IgG4), sequence (VL, as listed by the source, chain 2 of 2): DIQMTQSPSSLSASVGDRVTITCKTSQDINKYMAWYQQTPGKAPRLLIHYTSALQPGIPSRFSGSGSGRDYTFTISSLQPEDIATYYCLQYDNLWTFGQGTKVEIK

B1: 224777 (SEQ ID NO: 7) (designed binder)
chain: AQFDKIAQIAFYAILHLPNLTEEQRHAFIQSLRDDPSVSKEILAEAKKLNDAQAPKIAAQFDKIAQIAFYAILHLPNLTEEQRHAFIQSLRDDPSVSKEILAEAKKLNDAQAPKIAAQFDKIAQIAFYAILHLPNLTEEQRHAFIQSLRDDPSVSKEILAEAKKLNDAQAPKIAAQFDKIAQIAFYAILHLPNLTEEQRHAFIQSLRDDPSVSKEILAEAKKLNDAQAPKIAAQFDKIAQIAFYAILHLPNLTEEQRHAFIQSLRDDPSVSKEILAEAKKLNDAQAPK
notes: also called 224777 pentamer
Octagam (IgG sample) [1]
  Amount eluted IgG pH 3.7 (%): 0%
Natalizumab (IgG4)
  Kd: 2 nM
Panitumab (IgG2)
  Kd: 5.8 nM
Octagam (IgG sample) [2]
  Amount eluted IgG pH 4.0 (%): 100%
Octagam (IgG sample) [3]
  DBC10% 6 min residence time: 61 mg/mL
Octagam (IgG sample) [4]
  Remaining IgG binding capacity after 50 h, 1 M NaOH (%): 76%
